{
  "source": "patent US12404345B2",
  "about": "“Humanized antibodies against iRHOM2” (SCIRHOM GMBH, priority 2021, dated 2025)",
  "molecules": {"B1": {"name": "16-B-03: humanized antibody binding human iRhom2; HCVD SEQ ID NO 1, LCVD SEQ ID NO 5 (antibody, V domains shown)", "VH": "QVTLRESGPALVKPTQTLTLTCTFSGFSLSTFALGVGWIRQPPGKALEWLAHIWWDDDKYYNPALKSRLTISKDTSKNQVVLTITNMDPVDTATYYCARITTYYYGMDYWGQGTLVTVSS", "VL": "EIVMTQSPDFQSVTPKEKVTITCRASQSIGNHLHWYQQKPDASPKLLIKYASQSISGVPSRFSGSGSGTDFTLTINSLEAEDAATYFCQQSYQWPLTFGQGTKLEIK", "modifications": "antibody sequences"}},
  "target": "T1, human iRhom2 (Homo sapiens, UniProt Q6PJF5)",
  "T1 construct": "MEF-DKO-hiR2-FL-WT-T7 cells stably expressing human iRhom2 full length wild type; expressed in transfected cells; host or cells: immortalized iRhom1/2-/- double knockout mouse embryonic fibroblasts, pMSCV retroviral infection",
  "T1 sequence (Q6PJF5 1-856)": "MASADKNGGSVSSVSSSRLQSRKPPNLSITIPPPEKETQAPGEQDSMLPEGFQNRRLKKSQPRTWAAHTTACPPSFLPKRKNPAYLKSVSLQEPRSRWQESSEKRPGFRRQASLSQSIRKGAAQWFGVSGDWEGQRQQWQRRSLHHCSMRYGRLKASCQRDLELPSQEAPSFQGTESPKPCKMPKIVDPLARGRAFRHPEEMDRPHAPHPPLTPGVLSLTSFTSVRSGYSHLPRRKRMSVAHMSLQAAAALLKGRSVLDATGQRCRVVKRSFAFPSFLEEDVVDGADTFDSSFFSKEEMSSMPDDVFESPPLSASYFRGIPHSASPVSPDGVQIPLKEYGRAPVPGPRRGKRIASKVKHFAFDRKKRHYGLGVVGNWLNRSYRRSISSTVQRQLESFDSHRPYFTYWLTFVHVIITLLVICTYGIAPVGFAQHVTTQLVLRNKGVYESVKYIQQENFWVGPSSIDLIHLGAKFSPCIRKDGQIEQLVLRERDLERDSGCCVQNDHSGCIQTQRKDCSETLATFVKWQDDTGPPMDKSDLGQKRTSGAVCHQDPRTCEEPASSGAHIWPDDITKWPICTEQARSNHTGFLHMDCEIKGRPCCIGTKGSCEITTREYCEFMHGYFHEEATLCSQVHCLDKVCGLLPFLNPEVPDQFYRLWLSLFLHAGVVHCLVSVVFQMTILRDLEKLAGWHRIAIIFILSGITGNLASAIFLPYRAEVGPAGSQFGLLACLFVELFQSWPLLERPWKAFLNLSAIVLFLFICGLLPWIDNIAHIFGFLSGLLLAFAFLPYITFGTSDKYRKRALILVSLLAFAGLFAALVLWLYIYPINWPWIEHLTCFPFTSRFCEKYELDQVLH",
  "assay": "FACS binding to MEF-DKO-hiR2-FL-WT-T7 cells",
  "settings": "antibody at 3 μg/ml",
  "from_the_text": "Next, immortalized iRhom1/2−/− DKO MEFs were reconstituted with a tagged form of human iRhom2 to test target recognition of humanized antibodies of the invention. Additionally, iRhom1/2−/− DKO MEFs stably expressing a tagged form of mouse iRhom2 were generated in order to determine cross-reactivity of the humanized antibodies 16-B-03, 16-B-05, 16-B-07, 23-B-04, 42-B-02 and 42-B-04 of the invention with the mouse orthologue of iRhom2.\nIn brief, on day 1, Phoenix-ECO cells (American Type Culture Collection, USA) were seeded on 6-well tissue culture plates (Greiner, Germany) in standard growth medium at 8×10^5 cells per well and kept overnight at 37° C., 5% CO2. On day 2, the medium was replaced by fresh medium supplemented with chloroquine (Sigma-Aldrich, USA) at a final concentration of 25 μM. Applying the calcium phosphate method, cells were transfected with 2 μg/ml of pMSCV (Clontech, USA) empty vector, pMSCV-hiR2-FL-WT-T7 encoding human iRhom2 full length wild type C-terminally tagged with 3 consecutive copies of the T7 epitope (MASMTGGQQMG) or pMSCV-miR2-FL-WT-T7 encoding mouse iRhom2 full length wild type C-terminally tagged with 3 consecutive copies of the T7 epitope, and were kept at 37° C., 5% CO2. […]",
  "data": [
    {"molecule": "B1", "values": [
      {"measurement": "binding to the human iRhom2 variant on MEF-DKO-hiR2-FL-WT-T7 cells", "result": "strong binding"}
    ]}
  ]
}
